These results are taken from publication PMC2572727, “The GET Complex Mediates Insertion of Tail-Anchored Proteins into the ER Membrane” (Cell, 2008).

The target of the experiment is T1, purified Get1-PC and Get2-HA reconstituted in proteoliposomes (yeast, UniProt P53192 1-235; P40056 1-285).
T1 construct: Get1 (Mdm39), yeast; construct details in the Supplemental Data; Get2 (Rmd7, Hur2), yeast; also called +Get1/+Get2; Get1/Get2 complex; source: copurified from yeast, reconstituted into proteoliposomes
T1 sequence (looked up) 1: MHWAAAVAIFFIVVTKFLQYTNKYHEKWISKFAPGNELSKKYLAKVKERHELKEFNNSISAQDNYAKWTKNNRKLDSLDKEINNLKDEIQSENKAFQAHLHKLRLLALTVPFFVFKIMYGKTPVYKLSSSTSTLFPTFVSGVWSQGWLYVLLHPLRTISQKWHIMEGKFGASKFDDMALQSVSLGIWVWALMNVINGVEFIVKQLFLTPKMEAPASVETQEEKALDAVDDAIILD
T1 sequence (looked up) 2: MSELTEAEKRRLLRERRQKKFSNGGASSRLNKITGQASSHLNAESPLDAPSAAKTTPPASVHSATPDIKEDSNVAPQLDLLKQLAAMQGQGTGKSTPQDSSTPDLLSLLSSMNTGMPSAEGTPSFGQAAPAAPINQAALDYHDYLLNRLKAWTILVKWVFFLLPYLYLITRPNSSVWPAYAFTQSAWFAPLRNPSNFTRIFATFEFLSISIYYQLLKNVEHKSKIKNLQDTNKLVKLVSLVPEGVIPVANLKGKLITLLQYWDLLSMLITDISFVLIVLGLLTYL
The experiment is described as follows: co-sedimentation; recombinant Get3 incubated with proteoliposomes reconstituted with purified Get1-PC and Get2-HA or with Phs1 as control; Optiprep gradient fractions blotted with αGet3 or αPhs1. The following applies: both partners purified.

B1: recombinant Get3 ATPase (enzyme, yeast, UniProt Q12154 1-354, looked up)
chain: MDLTVEPNLHSLITSTTHKWIFVGGKGGVGKTTSSCSIAIQMALSQPNKQFLLISTDPAHNLSDAFGEKFGKDARKVTGMNNLSCMEIDPSAALKDMNDMAVSRANNNGSDGQGDDLGSLLQGGALADLTGSIPGIDEALSFMEVMKHIKRQEQGEGETFDTVIFDTAPTGHTLRFLQLPNTLSKLLEKFGEITNKLGPMLNSFMGAGNVDISGKLNELKANVETIRQQFTDPDLTTFVCVCISEFLSLYETERLIQELISYDMDVNSIIVNQLLFAENDQEHNCKRCQARWKMQKKYLDQIDELYEDFHVVKMPLCAGEIRGLNNLTKFSQFLNKEYNPITDGKVIYELEDKE
notes: Get3 (Arr4), yeast homolog of Asna1/TRC40, soluble cytosolic ATPase; also called Arr4; source: purified from Escherichia coli (Metz et al., 2006)
Regarding B1, the binding result is “binds”.
